No end group written: not given here.

Test [1] concerns the target T1, calcitonin receptors (human T47D / MCF7 breast carcinoma cells) (human, UniProt P30988 25-474).
T1 sequence (looked up): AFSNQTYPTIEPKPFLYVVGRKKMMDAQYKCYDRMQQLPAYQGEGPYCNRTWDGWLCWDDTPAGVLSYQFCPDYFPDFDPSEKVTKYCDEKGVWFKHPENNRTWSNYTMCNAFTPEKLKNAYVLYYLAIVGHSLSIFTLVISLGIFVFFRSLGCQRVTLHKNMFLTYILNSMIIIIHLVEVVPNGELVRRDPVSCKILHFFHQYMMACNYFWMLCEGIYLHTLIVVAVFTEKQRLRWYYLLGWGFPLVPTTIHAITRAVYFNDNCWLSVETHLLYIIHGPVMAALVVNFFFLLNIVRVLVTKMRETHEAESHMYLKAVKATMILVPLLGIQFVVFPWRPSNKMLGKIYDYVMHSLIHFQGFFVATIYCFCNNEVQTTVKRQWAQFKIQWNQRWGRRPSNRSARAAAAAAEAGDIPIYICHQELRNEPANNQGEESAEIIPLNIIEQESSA
Description: cell-based or functional assay.

The target in test [2] is T2, rat calcitonin C1a receptor (rat, UniProt P32214 25-516).
T2 sequence (looked up): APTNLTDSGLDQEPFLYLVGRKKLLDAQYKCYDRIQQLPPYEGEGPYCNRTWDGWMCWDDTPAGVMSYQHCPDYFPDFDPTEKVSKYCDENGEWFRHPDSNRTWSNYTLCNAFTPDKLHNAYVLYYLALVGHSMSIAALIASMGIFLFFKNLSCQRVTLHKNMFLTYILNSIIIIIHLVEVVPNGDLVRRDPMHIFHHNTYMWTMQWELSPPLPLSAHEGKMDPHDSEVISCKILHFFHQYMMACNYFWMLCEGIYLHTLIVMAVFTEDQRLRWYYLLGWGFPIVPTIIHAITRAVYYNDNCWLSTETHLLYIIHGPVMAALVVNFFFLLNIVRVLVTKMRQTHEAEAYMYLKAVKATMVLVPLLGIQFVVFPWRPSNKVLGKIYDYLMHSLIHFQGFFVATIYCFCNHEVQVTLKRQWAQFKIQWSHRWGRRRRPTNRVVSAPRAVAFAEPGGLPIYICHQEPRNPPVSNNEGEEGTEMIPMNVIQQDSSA
Put plainly: cell-based or functional assay.

The target of test [3] is T3, amylin receptors (rat nucleus accumbens membranes) (rat).
T3 construct: Assayed as a tissue membrane preparation, not on intact cells; also called amylin (nucleus accumbens) receptors
Put plainly: radioligand competition vs 125I-BH-rat amylin, rat nucleus accumbens membranes.

Turning to XLSTAVLGRLSQELHRLQTYPRTNTGSNTY (acetylated with acetic anhydride (site not given)) [Compound 6], in test [1], the “fold lower potency than human calcitonin, adenylyl cyclase, MCF7-7 cells” value was 80 fold.

As to LSTCVLGRLSQELHRLQTYPRTNTGSNTY (not fully specified) [Compound 1], the “EC50 of adenyl cyclase stimulation, HEK293 cells stably transfected with rat calcitonin C1a receptor” value in test [2] came to 0.97 nM.

Broadly, the IC50 is the concentration that inhibits the measured activity by half. High values mean weaker potency, low ones greater potency. In turn, LSTSVLGRLSQELHRLQTYPRTNTGSNTY-NH2 [Compound 5] registered a half-maximal inhibitory concentration (IC50) in test [3] of 0.092 nM.

Take LSTAVLGRLSQELHRLQTYPRTNTGSNTY-NH2 (not fully specified) [Compound 4]: the IC50 in test [3] came to 0.066 nM.

The record behind these values is patent EP1053001B1 (AMYLIN PHARMACEUTICALS, INC., dated 2010).
